# Test: label from the status in PepcDB records
row,Sequence,protein production
1,MKQEEDKFTGLPENAFRELKAGEVYNPLMSPSKNYPEVNFWSVTWGIAMAILFSAAAAYLGLKVGQVFEAAIPIAIIAVGVSGAAKRKNALGENVIIQSIGACSGVIVAGAIFTLPALYILQVKYPEMTVSFMQVFISSLLGGVLGILFLIPFRKYFVSDMHGKYPFPEATATTQVLVSGEKSGSQAKPLLMAGMIGGLYDFIVATFGWWNENFTTRVCGAGEMLAEKAKLVFKVNTGAAVLGLGYIVGLKYASIICAGSLAVWWIIIPGMSAIWGDSVLNAWNPEITSTVGMMSPEEIFKYYAKSIGIGGIAMAGVIGIIRSWGIIKSAVGLAAKEMGGKGNVEKNIVRTQRDLSMKIIAIGSILTLILIVLFFYFDIMQGNIVHTLVAIALVAGISFLFTTVAANAIAIVGTNPVSGMTLMTLILASVVMVAVGLKGPSGMVAALVMGGVVCTALSMAGGFITDLKIGYWLGSTPAKQETWKFLGTIVSAATVGGVMIILNKTYGFTSGALAAPQANAMAAVIEPLMSGVGAPWLLYGIGAILAIVLTFFKIPALAFALGMFIPLELNVPLVVGGAVNWYVTSRSKDTALNTERGEKGTLLASGFIAGGALMGVVSAAMRFGGINLVNEAWLNNTWSEVLALGAYALLILYFIKASMKVK,failed
2,MKQEETKRYESFKREFFHWFLAFSGDEPFSVAAGELLMMLKEELALQQAVLYLFDPSCDAFCPEAAAGRMPAAESIVAEEKQEIVVIDDGGPCIVVRLFFLLSEETRAMLELMYGKERHIDREWLKVLRTDLSSLFRKLSALSQRTSEENRYEQLHRFAAKIHSTMQIDDVLEEIICTLQNVYPAFTYHLLLSHDNHVCGNLPIKTLALDESEGQPAALRAFLTGQVQCEETAAPPRSVLYAPIKGVQAVYGVIQIIAPYAAPFPKREINFISLLAGTAGRALENAKLYEQSRRLVADLQLINDTMRQLNARPRLCEAIEYMVSQIKESFGADEVGFFLFADGKRELLRGSTPFFYNDLSALYVEWVEARLLSGNDILFAGDVRTSDFGPFRSIMAAPMMQNKEMKGVCIVLAYETYRFTFEMFKLLQSLVQHSTLAFMNAILREELEKLVVTDYLTKLYTRRYLDEAIQKSMEEDALGSFLLIDIDNFKQINDTYGHQTGDDVLVQVAKMIRTNIRDGDIAARWGGEELAVYLPKVALLDAIAIARRIVEKVREHTVPSVTVSCGLSSWRRHDHDDAEQLFKRADAALYMAKETGKNAIFVHDGDHLYRG,failed
3,MKQEETLTKVKVAEVTHSIFYAPLYVAESKGFFKEEGLDVDVNTTWGGDKTMTSLLSNGSDIALVGSETSIYVEAQGAKDPVINFAQLTQTDGTFLVAREDVEHFDWDQLKGKTFLGQRKGGMPQMVGEYVLNKHKIDPHKDIDLIQNIDFANIANAFASGTGEYVQLFEPQLLSLRKKASAISWLHSEKNQERFLIRLLWRNKAILEHHHHHH,failed
4,MKQIAFIGLGHMGAPMATNLLKAGYLLNVFDLVQSAVDGLVAAGASAARSARDAVQGADVVISMLPASQHVEGLYLDDDGLLAHIAPGTLVLECSTIAPTSARKIHAAARERGLAMLDAPVSGGTAGAAAGTLTFMVGGDAEALEKARPLFEAMGRNIFHAGPDGAGQVAKVCNNQLLAVLMIGTAEAMALGVANGLEAKVLAEIMRRSSGGNWALEVYNPWPGVMENAPASRDYSGGFMAQLMAKDLGLAQEAAQASASSTPMGSLALSLYRLLLKQGYAERDFSVVQKLFDPTQGQ,not failed
5,MKQKNVYIVIGFMLFALFFGAANLIYPAFLGIYSGHQILWSIIGFCLTGVSLPLLGVIAVAKSGSGDVESLARPISKWYAIFYSSILYLSIGPFFAIPRTGATSFSVGIAPILGDNTTNKAIYAILFFGLSYFLAIKPSKLAENIGKFLTPTLLVVISILVIASFVHPAGNYGDAFNAGVGVNNAFKDFPFIAGLIQGYGTMDALASLVFAILVIEATKQFGAKTDKEMTKITLISGAIAILLLALVYIFVGRIGATSQSLFPFIDGSFTLHGNPVNGGQILSHASRFYLGGIGQAFLAVVIFLACLTTSTGLITSSAEYFHKLVPALSHIAWATIFTLLSAFFYFGGLSVIINWSAPVLFLLYPLTVDLIFLVLAQKCFNNDPIVYRTTIGLTFIPAIFDALLTLSQMTGLFHLPEAVVTFFQKTVPLGQFSMGWIIFAAIGFLIGLILSKTKKS,failed
6,MKQLMLYCRSGFEKECAGEIQDKATQLEVYGFPRVKKNSGYVVFECYQDGDAEKLVKGLDFSSLIFARQMFAVAAEFEALPSEDRISPILAELSEFESFPRCGDLRIETPDTNEAKELLKFCRKFTVPMRQALRGKGLMWNKDNAKKPVLHICFVAPGHCYVGYSLPGNNSQFFMGIPRLKFPADAPSRSTLKLEEAFHVFIPRDEWDERLAPGMWGVDLGACPGGWTYQLVKRSMFVHCVDNGMMADSLMETGQIKHHMVDGFKFEPDRKNVTWIVCDMVEKPARVAHLMGQWLLKGWAKEAIFNLKLPMKGRYDEVLQDLENLKMFLIENKVKFKLQAKHLYHDREEITIHIQCLSNISPH,failed
7,MKQMNVVLIGGGTGLSVLARGLREFPIDITAIVTVADNGGSTGKIRDVMDIPAPGDIRNVIAALSDSESILTQLFQYRFGENQVDGHSLGNLVIAGMTNITNDFGHAIKELSKVLNIKGQVIPSTNASVQLNAVMEDGEIVHGETNIPKTHKKIDRVFLEPSDVEPMNEAIEALEQADLIVLGPGSLYTSVISNLCVKGISEALLRTSAPKLYVSNVMTQPGETDNYDVKEHIDALTRQVGEPFIDFVICSSESYSKDVLQRYEEKNSKPVAVHKEQLKDSGIRVLTASNLVEISNEHYVRHNTKVLSKMIYELALELTSTIRFTPSDKKK,not failed
8,MKQPNYYQDVKQFHQTFHHPGADQPTAIPLDRGVKRATWTAEEAVVEFLHQSSQNETEFLAAIETFKAGLDQAVKKSLKETYPVTEVERLVGQGDALTDALYFIMGSFVEAGLEPGPLFEIVQQANMAKLGPDGQPIFRESDQKVMKPDGWLPPEPQLEAEVVRQMKEKA,not failed
9,MKQVNVDVAVIGGGTAGLGSYRAAKAHTDSVVMIEGGPYGTTCARVGCMPSKLLIAAAESVHQIEKAPKFGIHPQGEIVINGREVMERVKFERDRFVGFVLEGVDEIPAEDKISGYAKFLDDNTLQVDDHTIINAKRIVIATGSRPAYPAVWNELGDRLIINDDVFNWDDLPKSVAVFGPGVIGLELGQALHRLGVETKLFGLGGQVGPVTDPEVMAYANKAFNEEFYLDADVKVESMKRITTESGEERVEIQFINKQGELETNIVEYVLAATGRRPNTDKLGLENTSIELDERGVPTADFYTLQTSLPTVFIAGDASNQLPLLHEAADQARIAGDNAGRFPEIRAGLRRSKISAVFSDPQIAMVGETYKEITTRLGTCGCFATGEVSFENQGRSRVMLRNKGILHVYGEQGTGRFLGAEMMGPNAEHLAHLLAWAHQNKMTVSEMLDMPFYHPVIEEGVRTALRDLNAKLHLGPEMIKHCMDCGPGC,failed
10,MKQWIAALLLMLIPGVQAAKPQKVTLMVDDVPVAQVLQALAEQEKLNLVVSPDVSGTVSLHLTDVPWKQALQTVVKSAGLITRQEGNILSVHSIAWQNDNIARQEAEQARAQANLPLENRSITLQYADAGELAKAGEKLLSAKGSMTVDKRTNRLLLRDNKTALSALEQWVAQMDLPVGQVELSAHIVTINEKSLRELGVKWTLADAQHAGGVGQVTTLGSDLSVATATTHVGFNIGRINGRLLDLELSALEQKQQLDIIASPRLLASHLQPASIKQESEIPYQVSSGESGATSVEFKEAVLGMEVTPTVLQKGRIRLKLHISQNVPGQVLQQADGEVLAIDKQEIETQVEVKSGETLALGGIFTRKNKSGQDSVPLLGDIPWFGQLFRHDGKEDERRELVVFITPRLVSSELEHHHHHH,not failed
11,MKRAYVLLIGLSMLLISLIVPFPLALSFVILAGLFIAHFSKMEEKEVNMIITATVSLFIGLLGGLLGSMIHHNISSTWTLLSAHGGLFLIALIGYFFMVLILMTLGSMIDKVISKARSKSL,failed
12,MKRCDRMNYREEYEKKLISPEEAAGLVESGMHIELGGAANTALIIDKYLAKRKDELENVKVGTFIDLAHYEFLKADPNGEVFEWSSGFLYRPVRKTSKELGPCVFRPNLYHDVPKIVREFSKDYDPIDIAYLVTTPMDKHGYFNFGLTCSHMKALAEVAEKVVVVVKENMPWVNGGYDECIHISEVDYIVEDNEMPVPFIPFSIPPTKEDEMIAENILNAETKDGRKLIQDGSTLQVGIGGLPDTVVKMLKEGGYKNLGVHTEMMGDGTLELIEEGVVTNDQKRLDRGKSVFTFALGSLKLYEYLDRNPEVATYPVDYTNDPFIIAQQPKMFSLNQAAEADLMGQINSEQMGLISPTGKLYQVSGTGGQLDFVMGCLFSRDRQGFSILAMYSTHNGTSRIKPILPPGAAVTVPRSMVQVVATEWGVAYLKGLTVKERAIAMIHLAHPDHREWLEKEAEKLGLLPPNYTIPAGKPDYLLYKRDLEHHHHHH,not failed
13,MKRFARKETIYLRGEEARTLYRLEEGLVRVVELLPDGRLITLRHVLPGDYFGEEALEGKAYRYTAEAMTEAVVQGLEPRAMDHEALHRVARNLARQMRRVQAYEAHLQTGELRARIARYLLFLADTPLSARDRQGIYVTVSHEEIADATASIRESVSKVLADLRREGLIATAYRRVYLLDLAALEREAGSALEAA,not failed
14,MKRFPGRDMRSLTELVLGRDKFRTALCCSVVGMLLTLLFLSSCHYTRPDLTSEELSEKTKDSLNYLYDRHYTWNTNLEVTTDSVTMECLPIKDTYIALYKGDRVVVAEFAIHPADSVDSVWVKLAHTQEEQGWIRETELKESFVPTDSISQAIHFFSDTHASYFMIIFALFVGVYLFRAFRRKQLQLVYFNDIDSVYPLFLCLLMAFSATVYESMQVFVPDTWEHFYFNPTLSPFKVPFILSVFLLSIWLFLIVALAVLDDLFRQLTPAAAVFYLLGLMSSCIFCYFFFILMTHIYIGYLFLAFFIWVFAKKVHRNISYKYRCGHCGEKLKEKGICPHCGAINE,failed
15,MKRHYIFASHGSFANGLLNSVELILGKQPDIHTLCAYVEEEVDLTQQVEALVARFPAQDELIVITDIFAGSVNNEFVRFLSRPHFHLLSGLNLPLIIDLLISAAEDNTEKLITEALTNAKESIQYCNQTIASAMTMDKDF,not failed
